Experimental data taken from patent publication US20230365705A1 (DYNAMICURE BIOTECHNOLOGY, published 2023).

T1: Human CD93 on cells (human CD93 expressing CHO cells; HUVEC, U937 and KG1a cells) (human, UniProt Q9NPY3 22-652)
T1 construct: whole, on cells; also called hCD93 expressing CHO cells; hCD93 CHO cells
T1 sequence (looked up): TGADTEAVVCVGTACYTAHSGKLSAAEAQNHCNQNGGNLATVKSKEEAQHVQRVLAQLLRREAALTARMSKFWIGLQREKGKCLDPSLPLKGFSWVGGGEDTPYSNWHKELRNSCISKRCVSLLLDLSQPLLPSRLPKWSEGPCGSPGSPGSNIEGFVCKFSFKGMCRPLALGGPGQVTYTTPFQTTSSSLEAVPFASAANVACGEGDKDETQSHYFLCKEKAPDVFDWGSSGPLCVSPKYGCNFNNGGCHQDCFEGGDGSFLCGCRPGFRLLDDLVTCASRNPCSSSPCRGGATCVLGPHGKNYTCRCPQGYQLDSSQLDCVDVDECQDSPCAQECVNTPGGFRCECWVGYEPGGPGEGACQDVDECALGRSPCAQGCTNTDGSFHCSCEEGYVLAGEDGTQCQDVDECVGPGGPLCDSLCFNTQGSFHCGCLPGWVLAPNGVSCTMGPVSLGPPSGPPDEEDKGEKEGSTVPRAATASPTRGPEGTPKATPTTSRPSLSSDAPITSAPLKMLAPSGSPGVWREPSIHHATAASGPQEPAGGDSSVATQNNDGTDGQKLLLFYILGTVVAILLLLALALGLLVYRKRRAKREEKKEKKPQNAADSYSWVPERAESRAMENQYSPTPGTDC

T2: Human CD93 recombinant protein (Sino Biological Inc, Catalog #12589-H08H) (human, UniProt Q9NPY3 22-580)
T2 construct: Biotinylated (EZ-LINK NHS-PEG4 biotin) in the BLI assays; also called hCD93; His-tagged human CD93
T2 sequence (looked up): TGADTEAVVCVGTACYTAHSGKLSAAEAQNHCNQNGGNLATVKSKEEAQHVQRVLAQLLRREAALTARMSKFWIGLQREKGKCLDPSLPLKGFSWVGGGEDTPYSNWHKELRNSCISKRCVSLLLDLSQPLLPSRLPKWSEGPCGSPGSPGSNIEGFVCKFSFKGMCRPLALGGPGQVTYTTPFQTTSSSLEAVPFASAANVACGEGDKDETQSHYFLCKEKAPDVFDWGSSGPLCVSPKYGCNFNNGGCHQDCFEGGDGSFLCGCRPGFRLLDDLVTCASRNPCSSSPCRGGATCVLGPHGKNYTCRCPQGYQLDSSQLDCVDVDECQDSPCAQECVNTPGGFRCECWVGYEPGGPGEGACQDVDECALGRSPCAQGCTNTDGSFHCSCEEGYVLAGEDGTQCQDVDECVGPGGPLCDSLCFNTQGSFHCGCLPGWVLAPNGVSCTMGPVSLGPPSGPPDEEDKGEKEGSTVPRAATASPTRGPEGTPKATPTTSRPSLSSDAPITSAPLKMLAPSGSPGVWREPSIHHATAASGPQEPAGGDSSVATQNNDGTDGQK


What was measured:
[1] = biological target: T1, Human CD93 on cells (human CD93 …); experiment: flow cytometry blocking assay, CHO-hCD93 cells, antibody 50 ug/ml then MMRN2 0.1 ug/ml, APC-A
Experimental: (§1) After incubation, the cells were washed with FACS buffer and incubated with anti-His conjugated APC or streptavidin conjugated APC at a ratio of 1:500 for 30 minutes at 4° C. After washing with FACS buffer twice, the samples were analyzed and data acquired in NovoCyte Flow.

[2] = biological target: T1, Human CD93 on cells (human CD93 …); experiment: flow cytometry blocking assay, CHO-hCD93 cells, antibody 50 ug/ml then MMRN2 0.5 ug/ml, APC-A
Experimental: as §1

[3] = biological target: T1, Human CD93 on cells (human CD93 …); experiment: flow cytometry, CHO-hCD93 cells, APC-A
[4] = biological target: T2, Human CD93 recombinant protein (Sino …); experiment: BLI (Octet), human CD93; sheet prints Anti-Penta-HIS(HIS1K) biosensor
[5] = biological target: T1, Human CD93 on cells (human CD93 …); experiment: flow cytometry, CHO cells overexpressing human CD93, antibody 0.01ug, mIgG1 as control, APC-A
[6] = biological target: T1, Human CD93 on cells (human CD93 …); experiment: flow cytometry titration on HUVEC cells +human serum; column head printed kd, unit from the axis log (concentration (M))
Experimental: (§2) Recombinant parental anti-CD93 antibodies were evaluated for their ability to bind to HUVEC cells in the presence or absence of human serum. […] Antibodies were purified using Protein G Sepharose. The resulting antibodies were tested for its binding capacity to a variety of cells that express CD93. […] Cells were quenched with media then counted. Cells were resuspended in FACS buffer (ice cold PBS with 0.5% BSA) and human serum was added to 20% (10% final volume) and put on ice for approximately 20 minutes. 5×10⁴ cells were seeded per well in 100 μL media and incubated with serial diluted anti-CD93 antibodies in 100 μL on ice for 2 hours. Cells were then washed by spinning cells at 1200 rpm for 5 min. Media was discarded and cells were resuspended in 200 μL ice cold FACS buffer. The wash step was repeated and cells were resuspended in 100 μL of secondary antibody, AlexaFluor647 conjugated anti-human IgG or anti-mouse IgG antibodies (Jackson ImmunoResearch), diluted 1:500 in FACS buffer. Plates were blocked from light and incubated 1 hour at 4° C. Cells were then washed again then were resuspended in 200 μL ice cold FACS buffer. Cells were washed again and resuspended in 200 μL fixing solution (PBS with 1% formaldehyde). Samples were stored at 4° C. covered in foil, then were acquired in NovoCyte Flow Cytometer and analyzed by NovoExpress software.

[7] = biological target: T1, Human CD93 on cells (human CD93 …); experiment: flow cytometry titration on HUVEC cells -human serum; column head printed kd, unit from the axis log (concentration (M))
Experimental: as §2

[8] = biological target: T1, Human CD93 on cells (human CD93 …); experiment: flow cytometry titration on U937 cells -human serum; column head printed kd, unit from the axis log (concentration (M))
Experimental: Cells were quenched with media then counted. Cells were resuspended in FACS buffer (ice cold PBS with 0.5% BSA) and put on ice ˜20 min. 5×10⁴ cells were seeded per well in 100 μL and incubated with serial diluted anti-CD93 antibodies in 100 μL on ice for 2 hours. Samples were then washed by spinning samples at 1200 rpm for 5 minutes. Media was discarded and cells were resuspended in 200 μL ice cold FACS buffer. Cells were washed again and resuspended in 100 μL of secondary Antibody, AlexaFluor647 conjugated anti-human IgG or anti-mouse IgG antibodies (Jackson ImmunoResearch), diluted 1:500 in FACS buffer. Plates were covered with foil to protect from light and were incubated for 1 hour on ice. Samples were then washed again and resuspended in 200 μL ice cold FACS buffer. Cells were washed again and resuspended in 200 μL fixing solution (PBS with 1% formaldehyde). Samples were stored at 4° C. covered in foil, ands were subsequently acquired in NovoCyte Flow Cytometer and analyzed by NovoExpress software.

[9] = biological target: T1, Human CD93 on cells (human CD93 …); experiment: flow cytometry titration on human CD93 CHO cells; column head printed kd, unit from the axis log (concentration (M))
Experimental: Cells were quenched with media then counted. Cells were resuspended in FACS buffer (ice cold PBS with 0.5% BSA) and human serum was added to 20% (10% final volume) and put on ice for approximately 20 minutes. 5×10⁴ cells were seeded per well in 100 μL and incubated with serial diluted anti-CD93 antibodies in 100 μL on ice for 2 hours. Samples were then washed by spinning samples at 1200 rpm for 5 minutes. Media was discarded and cells were resuspended in 200 μL ice cold FACS buffer. Cells were washed again and resuspended in 100 μL of secondary Antibody, AlexaFluor647 conjugated anti-human IgG or anti-mouse IgG antibodies (Jackson ImmunoResearch), diluted 1:500 in FACS buffer. Plates were covered with foil to protect from like and incubated for 1 hour on ice. Cells were washed again resuspended in 200 μL ice cold FACS buffer. Cells were washed again and were resuspended in 200 μL fixing solution (PBS with 1% formaldehyde). Samples were stored at 4° C. covered in foil, then were acquired in NovoCyte Flow Cytometer and analyzed by NovoExpress software.

[10] = biological target: T2, Human CD93 recombinant protein (Sino …); experiment: ELISA, His-tagged human CD93 coated, OD450
Experimental: His-tagged human CD93 was coated onto a 96 well plate at 1 μg/mL in 1×PBS overnight at 4° C. The plate was washed with ELISA wash buffer (Boston BioProduct, Inc.) and the wells were blocked with ELISA blocking buffer for 1 hour at 37° C. […] The plate was washed with ELISA wash Buffer. […] The plate was washed with ELISA wash Buffer. HRP substrate was added for indirect detection of the antibodies binding to CD93.

| Binder | Kd [6] [pM] | Kd [7] [pM] | Kd [8] [pM] | Kd [9] [pM] | EC50 [10] [pM] | further results |
| --- | --- | --- | --- | --- | --- | --- |
| 10B1 (antibody, V domains shown, Mouse hybridoma monoclonal antibody) VH: QVQLKQSGPGLVQPSQSLSITCTVSDFSLSSFGVNWVRQPPGKGLEWLGVIWSGGSTDYNVAFISRLSISKDNSKSQVFFKMNNLQADDTAIYYCARNWRYDGYFYAMDYWGQGTSVTVSS VL: DIVMTQSQKFMSTSTGDRVSVTCKASQNVGTNVAWYQQKPGQSPKALIYSASYRFIGVPDRFTGSGSGTDFTLTITNVQSEDLAEYFCQQYNRNPITFGSGTKLEIK | – | – | – | – | – | M3 gate, % of cells positive for MMRN2 after the antibody [1]: 29.4%; M3 gate, % of cells positive for MMRN2 after the antibody [2]: 47.2%; M3 gate, % of cells [3]: 97.3%; Kd [4]: 904 pM; koff [4]: 0.000116 s⁻¹; kon [4]: 128000 M⁻¹ s⁻¹ |
| humanized 17B10 H3L2 (antibody, mouse IgG1, V domains shown, Chimeric Fc: human CH1, mouse IgG1 CH2 and CH3) VH: QVQLVQSGPEVKKPGESLKISCKASGYAFSSYWLNWVRQMPGKGLEWMGRIYPGDGDTDYNGKFKGQVTISADKSSGTAYLQLSSLKASDTAVYFCVRGDGYWAMDYWGQGTLVTVSS VL: DIVMTQTPLSLPVTPGEPASISCRFSQSLLHSNGITYLYWYLQKPGQSPQLLIYTMSNLASGVPDRFSGSGSGTDFTLKISRVEAEDVGVYYCAQNLELPWTFGGGTKLEIK | – | – | – | – | – | M2 gate, % of cells [5]: 96.7% |
| 17B10 (hybridoma) (antibody, V domains shown, Mouse hybridoma monoclonal antibody) VH: QVQLQQSGPELVKPGASVKISCKASGYAFSSYWLNWVKQRPGKGLEWFGRIYPGDGDTDYNGKFKGKATLTADKSSSTAYMQLRSLTSEDSAVYFCVRGDGYWAMDYWGQGTSVTVSS VL: DIVMTQAAFSNPVTLGTSASISCRFSKSLLHSNGITYLYWYLQKPGQSPQLLIYQMSNLASGVPDRFSSSGSGTDFTLRISRVEAEDVGVYYCAQNLELPWTFGGGTKLEIK | – | – | – | – | 153 | – |
| 17B10-hIgG1 (recombinant parental 17B10-hFc) (antibody, V domains shown, also called recombinant parental 17B10 with the human Fc; 17B10 chimeric) VH: QVQLQQSGPELVKPGASVKISCKASGYAFSSYWLNWVKQRPGKGLEWFGRIYPGDGDTDYNGKFKGKATLTADKSSSTAYMQLRSLTSEDSAVYFCVRGDGYWAMDYWGQGTSVTVSS VL: DIVMTQAAFSNPVTLGTSASISCRFSKSLLHSNGITYLYWYLQKPGQSPQLLIYQMSNLASGVPDRFSSSGSGTDFTLRISRVEAEDVGVYYCAQNLELPWTFGGGTKLEIK | – | – | – | – | 16.7 | – |

Further lines, with some results ahead:

| Kd [6] [pM] | Kd [7] [pM] | Kd [8] [pM] | Kd [9] [pM] | EC50 [10] [pM] | Binder | further results |
| --- | --- | --- | --- | --- | --- | --- |
| 314 | 174 | 62.9 | 140 | – | Recombinant parental 16E4 with a human CH1 domain and mouse IgG1 CH2 and CH3 Fc domains (antibody, V domains shown) VH: QVQLQQPGAELVKPGASVKLSCKASGYTFTSYWMHWVKQRPGQGLEWIGEIDPSASYTYYNQKFKGKATLTVDKSSSTAYMQLSSLTSEDSAVYYCARSVYYGNKYFDVWGAGTTVTVSS VL: not shown | – |
| 3430 | 741 | 23.4 | 75.7 | – | Recombinant parental 7F3 with a human CH1 domain and mouse IgG1 CH2 and CH3 Fc domains (antibody, V domains shown) VH: QVQLQQSGADLVRPGASVKLSCKASGYTFTDYEMHWVKQTPVYGLEWIGGIDPETGDTAYNQNFKGKATLTADKSSSAAYMELRSLTSEDSAVYYCTNYGNLYYYAMDYWGQGTSVTVSS VL: ENVLTQSPAIMSASPGEKVTMTCRASSSVSSSYLHWYQQKSGASPKLWIYSTSNLAFGVPARFSGSGSGTSYSLTISSVEAEDAATYYCQQYSGYPLTFGSGTKLEIK | – |
